Results reported in patent US20230129844A1 (Amgen, published 2023).

Molecular target: human MUC17 (huMUC17), membrane form (human, UniProt Q685J3 26-4493)
Assay: immunohistochemistry on tissue sections

B1: anti-huMUC17 4C11 IHC antibody (antibody, mouse IgG2a, kappa, V domains shown)
VH: EVQLQQSGPELVKPGDSVKISCKASGYSFTGNFLNWVMQSHGKSLEWIGRITPYSGETFYNQKFKDKATLTVDISSSIAHMELRSLTSEDSAVYYCARGVTTEVSHYYAMDYWGQGTAVTVSS
VL: DIQMNQSPSSLSASLGDTITITCHASQNINLWLHWYQQKPGNIPKLLIFKASNLHTGVPLRFSGSGSGTGFTLTISSLQPEDIATYFCQQGQSYPLTFGGGTKLEIKR
notes: Mouse hybridoma-derived monoclonal antibody; also called 4C11 antibody; the antibody of the invention
binding result: binds
